Source: US20200140826A1, “Maintenance and Expansion of Pancreatic Progenitor Cells” (AGENCY FOR SCIENCE, TECHNOLOGY AND RESEARCH, priority 2017, published 2020)

Test system: cPP cells
Test: Omission of individual components from complete cPP culture medium on 3T3-J2 feeders (phase contrast, qRT-PCR)
Type: cell-based, human
Experimental: Gentle cell dissociation reagent (STEMCELL Technologies, 07174) was used to passage cPP cells as aggregates that were then seeded at a 1:6 split ratio onto a layer of 3T3-J2 feeders (0.5×10^6 to 1×10^6 cells/cm^2) in medium composed of advanced DMEM/F12 (Thermo Fisher Scientific, 21634010), 2 mM L-glutamine (Thermo Fisher Scientific, 25030), 100 U/mL penicillin/streptomycin (Thermo Fisher Scientific, 15140122), 1× N2 supplement (Thermo Fisher Scientific, 17502-048), 1× B27 supplement (Thermo Fisher Scientific, 17504-044), 30 nM dexamethasone (STEMCELL Technologies, 72092), 50 ng/mL EGF (R&D Systems, 236-EG-200), 50 ng/mL FGF10 (Source Bioscience, ABC144), 3 μM RA (Sigma, R2625), 10 μM SB431542 (Calbiochem, 616464), and 1 μM DAPT (Sigma, D5942). If plating single cPP cells, complete medium was supplemented with 10 μM Y27632 for the first 48 hr (Sigma, Y0503). Medium was completely replenished every 2-3 days.
RNA was isolated from samples using an RNeasy mini kit (Qiagen, cat # 74104) and reverse transcribed to generate cDNA using a high-capacity reverse transcription kit and random hexamer primers (Applied Biosystems, 4368814,1 μg RNA per 20 μL reaction). Quantitative RT-PCR was carried out using SYBR Select Mastermix (Applied Biosystems, 4472908). Data were analyzed using the ΔΔCT method, and normalized to expression of the housekeeping gene TBP in each sample. […]

B1: FGF10: fibroblast growth factor 10, growth factor in the cPP culture medium (50 ng/mL) (protein, UniProt O15520 38-208, looked up)
Fibroblast growth factor 10: QALGQDMVSPEATNSSSSSFSSPSSAGRHVRSYNHLQGDVRWRKLFSFTKYFLKIEKNGKVSGTKKENCPYSILEITSVEIGVVAVKAINSNYYLAMNKKGKLYGSKEFNNDCKLKERIEENGYNTYASFNWQHNGRQMYVALNGKGAPRRGQKTRRKNTSAHFLPMVVHS
Effect of removing the component on cPP expansion, colony size and morphology (component individually omitted from complete medium, cPP cells cultured 6 days on 3T3-J2 feeders): did not significantly affect colony size or morphology in the short term | Effect of removing the component on viability (component removed from the culture media over multiple passages): noticeable loss of viability
